Results reported in article PMC8818087 (Nature cancer, 2021).

T1: purified SND1 (16-339aa) protein (UniProt Q7KZF4 16-339)
T1 sequence: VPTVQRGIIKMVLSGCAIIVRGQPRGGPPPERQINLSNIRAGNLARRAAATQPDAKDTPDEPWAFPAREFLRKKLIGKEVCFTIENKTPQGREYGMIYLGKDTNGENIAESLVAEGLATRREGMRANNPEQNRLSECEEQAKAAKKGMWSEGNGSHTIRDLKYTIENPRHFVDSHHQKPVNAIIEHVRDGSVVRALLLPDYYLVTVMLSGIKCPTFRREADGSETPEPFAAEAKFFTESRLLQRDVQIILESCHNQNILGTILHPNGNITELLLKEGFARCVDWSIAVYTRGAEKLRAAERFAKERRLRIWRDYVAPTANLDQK

T2: TC-SND1 (16-339aa) (UniProt Q7KZF4 16-339, FlAsH-EDT2 labelling reagent on the tetracysteine tag)
T2 sequence: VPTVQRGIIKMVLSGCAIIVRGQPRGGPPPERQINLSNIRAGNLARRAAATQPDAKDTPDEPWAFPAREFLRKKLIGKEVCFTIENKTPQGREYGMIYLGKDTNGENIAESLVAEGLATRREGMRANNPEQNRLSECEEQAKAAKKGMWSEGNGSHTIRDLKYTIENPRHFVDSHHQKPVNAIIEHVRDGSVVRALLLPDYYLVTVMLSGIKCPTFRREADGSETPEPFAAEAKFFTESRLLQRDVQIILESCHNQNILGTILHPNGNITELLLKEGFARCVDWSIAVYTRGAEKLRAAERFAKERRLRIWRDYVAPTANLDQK


Key:
[1] = target: T1, purified SND1 (16-339aa) protein; test: MST
TC-SND1 (16-339aa) = target: T2, TC-SND1 (16-339aa); test: FRET or BRET

Binder | binding result [1] | binding result (TC-SND1 (16-339aa))
PNSDWNAPAEEWGNW [wild type MTDH (MTDH-WT) minimal peptide] | binds | binds
SSADPNSDWNAPAEEWGNWVDE (domain or fragment) [CFP-MTDH (386-407aa)] | – | binds
